Experimental findings from the supplement of paper PMC12042874 are described below.

± gives the uncertainty stated by the source.

This series can be described thus: amyloid nucleation score (Sup35N fusion, yeast selection) (log enrichment); library NNK1; higher = more nucleation; inactive = no reads after selection. Summed up:
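Growth for 7 days at 30°C on medium lacking adenine and uracil followed a 24-hour induction with 100 μM copper sulfate of psi-negative yeast expressing peptides of 20 random codons fused to Sup35N. Input and output plasmid inserts were sequenced with Illumina, and sequences with under 100 input reads were excluded. Nucleation score is the DiMSum log enrichment of output over input reads, centred on the mode score of non-aggregating sequences.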

Substance ISYESWVLRGIARGFQGLVG gave an amyloid nucleation score of -1.09 ± 0.7. The entry for IDWSVHL is “inactive”. The figure for RIIITLH is 0.264 ± 0.31; for NIYVGSYTLYTTN it is 5.386 ± 0.047.

Regarding YVDLFIMPIACGTSVMHLNL, the amyloid nucleation score was determined as 5.464 ± 0.047. Next, MYGGKCSNGPCMYSVGIGTW: 1.39 ± 0.34. The figure for TFNLVLGLSWNPDMFGDKGV is 1.2 ± 0.41. The figure for RQDARE is 0.004 ± 0.42; for SNGRFWYMADSVST it is “inactive”. INFVLMIRMIVSFMNIGRIG yielded an amyloid nucleation score of -0.527 ± 1.6.

YKFKGSFVSIRQGAEVGYSA came in with an amyloid nucleation score of -0.361 ± 0.69.

Substance VATIQRISGIKQESAGSRTF returned an amyloid nucleation score of -0.07 ± 0.93.

Turning to WVRNSLCRQIRRSANHQSGA, the amyloid nucleation score entry was “inactive”.

VLLDGAKMSESAEGGISALW showed an amyloid nucleation score of -0.161 ± 0.46. The figure for CYTHPVMSITLNSI is 2.36 ± 0.15; for THLGGRRFHFSELRTRSSRG it is -0.023 ± 0.49; for CVTLCSDVSYSTYNWLPFIR it is 0.834 ± 0.44. The entry for IDCIWGLCNWFHSLVMCVHS is “inactive”; for CQYMFHIWQLIANHVI it is 0.799 ± 0.43. Next, NSIPLDLSNTLLLCARC: -0.02 ± 0.49; CFYFMECLV: -0.254 ± 0.59; EPLISCILCKLEGWIPYHI: -0.493 ± 0.56.

In turn, TSAASLVERNLFLVSFFIIW showed an amyloid nucleation score of -0.376 ± 1.7. As for NVPIPRAFRDNRTL, the amyloid nucleation score was 0.577 ± 0.5. The figure for SMSFRCLDAKDVPDRASQGY is -0.385 ± 0.39. Substance GSSFGFDYFDAHPMYLVTSY returned an amyloid nucleation score of 1.37 ± 0.48. Next, GIRPEN: -0.521 ± 0.49; SLPAEYSRRPKWVGASTVDW: 0.527 ± 0.55. Next, VRECRSMERTTHQVCTWGGA: 0.078 ± 1.4; LYRRGTRPPG: -1.28 ± 2.4. Next, IFGCRLLYCS: 0.402 ± 1.4. On to HSSKYRRFVSTTVTIVSVSR, for which the amyloid nucleation score is 4.01 ± 0.09. The figure for VTCWPDICRSFYMIVLHCFR is 0.141 ± 0.7; for FCLNGRYECGSRMECEMVRE it is -0.741 ± 0.39. Next, KYRASYRNHRDMGDSAVYGY: 0.044 ± 0.26; GTCYFTDQR: 0.491 ± 0.37; TCCRRVLSMEQQDTLVYWQY: -0.585 ± 1.7.

In turn, MSCYLQAFDITTTTNDASWW displayed an amyloid nucleation score of -0.95 ± 1.6. The figure for IGDGSFYGLRQRQEARGKRA is -0.437 ± 0.73.

VSRMP: the amyloid nucleation score was determined as 3.21 ± 0.12. Substance MPLLYSVSHCWFKPAFGWAW registered an amyloid nucleation score of 0.442 ± 0.69. FMALLQLAGVIWVSLTVLTP yielded an amyloid nucleation score of 0.08 ± 0.62. The figure for ECYQKTGVCRK is -0.447 ± 0.89; for PRYMTLGVVWSMSGWSESVQ it is 1.04 ± 0.52. With SFVVTAEPSRAMNYSCFWKR, the amyloid nucleation score entry was “inactive”. The figure for VNSVWNGNR is -0.218 ± 0.71.

In the case of HSNCVDSRCETARTS, the amyloid nucleation score was 1.47 ± 0.47. The figure for RLIHRPVWV is 0.526 ± 0.48; for CWRSVCGLLATGNQYFFGNA it is 4.88 ± 0.07.

Substance RFFGFS had an amyloid nucleation score of -0.63 ± 1.1. The figure for ARYYLLFAFDNNFCIGVVGS is 4.23 ± 0.099.

In the case of SLTFVPTLFTCMDLMHC, the amyloid nucleation score was 7.415 ± 0.067. Consider TSYYRGFYKYAWNG, for which the amyloid nucleation score was 0.21 ± 0.39. Substance TYVLTP came in with an amyloid nucleation score of -0.454 ± 1.6.

The substance IGGCLETCCSLGDKLGRRKR had an amyloid nucleation score of 1.07 ± 0.66. Next, SSVSPIHHRLYKTETPMWLT: -0.369 ± 0.58; YFGKYLIWWFMSKLAV: -0.388 ± 0.29; LYVHSFFRFMWSDKVLLSKT: 0.856 ± 0.56.

SNIASNKKVIMINHFKGFSL displayed an amyloid nucleation score of 3.58 ± 0.057. The entry for MLDFTIQGLKSCWISVSLFF is “inactive”; for LGLMTFFVWFNWG it is -1.43 ± 1; for FVEVVRTLEQI it is -0.485 ± 1.

In turn, MCRLTPRIITDY came in with an amyloid nucleation score of 0.244 ± 0.28. Next, GSDWTRMMNVLAGGGGVGSE: -0.484 ± 0.58. The entry for VTVFEILWGMTT is “inactive”.

DHNLWFDNAFMSLCCCMNMI gave an amyloid nucleation score of 3.42 ± 0.19.

The substance LGRKKGFMTYSGLYYVRLWA returned an amyloid nucleation score of -0.81 ± 1.4. The figure for TATDPLLSYGAHL is -0.354 ± 0.31; for YLCFKYVLGCNRWSVAVVNF it is “inactive”; for ISDCRFILMYSYGHLCAGVR it is 0.513 ± 0.45. Consider TNVNF, for which the amyloid nucleation score was -1.24 ± 0.74. Next, LLTDRRDSSSRNDTLVRKGM: 2.23 ± 0.091. The figure for FGNGHSRMHHRTLHTKPRAA is 0.37 ± 1.1.

On to TFLQFTRYFWLTTYNKGSS, for which the amyloid nucleation score entry is “inactive”. In the case of KNAPLPRIVTIGKVLRYNRG, the amyloid nucleation score amounted to 0.422 ± 0.79.

As for SFRACFGPWLFIALIPKNTV, the amyloid nucleation score was -1.1 ± 0.61. The figure for DFLIAVMEQSMAQFKGHSSD is 0.071 ± 1.2; for NYVEVINNFHAFVRVLFEIL it is 4.09 ± 0.15; for RNWLLDTNSLQVMSPYIFEV it is -0.41 ± 0.74. Next, FMHAFRNQRLNLAGLGFRVA: 0.573 ± 0.62; LLWTKFGYCYRIEWSAVWFF: -0.527 ± 0.52. The figure for LVVLSTVDA is -0.279 ± 0.67.

For the substance DLRSPRNS, the amyloid nucleation score result was “inactive”. The figure for CKVQLSQDRAVECGVNHGVY is -0.01 ± 0.44; for CVSPSVTNFAELVSIVISPS it is 0.652 ± 0.66; for EGITHVFIRDGVGSYLKAET it is 1.33 ± 0.58. The figure for MRACRYANLNVSRNMWGICG is 0.743 ± 0.48; for FATRTLVYVYFRWCHDDLSH it is 0.584 ± 0.56. The figure for FNVLCPRRQNLSGVELD is -0.02 ± 0.45. Take VLVMVEFTMLEALWRCLAVG: the amyloid nucleation score is -0.297 ± 0.5.

LSSCFPIDRSEDSDVYGYFK displayed an amyloid nucleation score of -0.252 ± 0.49. In the case of KHRFCSIEWVK, the amyloid nucleation score was determined as 1.31 ± 0.71. In turn, ELGKKYSLYSLVLAST gave an amyloid nucleation score of 0.107 ± 0.67. Next, VKLGDNNTRQLTYSGS: 1.71 ± 0.73.

As to LSLCSLYNSWQGM, the amyloid nucleation score was 0.492 ± 0.4.

Turning to HPGMTSAASVCWFHGRVLTL, the amyloid nucleation score worked out at 0.494 ± 0.51. Next, KYWVGWAVSFCVWYLTRLWE: 0.337 ± 0.67.

YRGYDKREYCSHFFTWDTYG returned an amyloid nucleation score of 0.821 ± 0.72. Next, WPTIPAVQCRRVVCSRDTWA: -0.185 ± 0.31; VRHTQHRSSL: -1.62 ± 1.3.

As to SDGRNHTANYPWG, the amyloid nucleation score was -0.182 ± 0.65. The entry for SVLDFNNYMEIVAQVKGEDP is “inactive”; for KSITWSKGDFARSTLLVNIC it is 0.397 ± 0.43. In the case of REVSVVNLYRCFDGIRSKLT, the amyloid nucleation score worked out at 0.219 ± 0.23.

For GMLRVYWSMSSVFSGMCDRC, the amyloid nucleation score amounted to 3.94 ± 0.1. Next, ERSYSNWAMG: 0.958 ± 0.74; FDSRENETTCAMSEDMTYVV: -0.238 ± 0.22; KSMKGRSLRLRLKRDPRKVA: -0.051 ± 0.4. The entry for GTSESLGYYSVLRMDIYFGS is “inactive”; for LYFVLPTNKLPDRSY it is -0.403 ± 0.84. The figure for EIWPFMPRDHPMNALIYVSR is 1.34 ± 0.39; for PFFWFH it is -0.482 ± 0.26. As for NMIESIVDISTPFIHGMIND, the amyloid nucleation score is 0.295 ± 1.1. The figure for TYLFSTVGVSGSSMSQVYIV is -0.387 ± 0.46; for VIPVLWAVLWEAIIYEEGGA it is 0.778 ± 0.22. SKLCVCGTASLLHYTVTERV returned an amyloid nucleation score of 5.29 ± 0.11. Next, FNGRVRGYHSLDNVVHGRLY: 0.522 ± 0.58; IISMLFAFIGQSIIVQVVRC: 0.316 ± 0.26; IGWNFAFVSGILVW: “inactive”. The figure for KGTAPGNSGGERVVMNSHDL is 2.61 ± 0.22; for SCGLINWLRVYHLLSLNSGS it is 2.31 ± 0.1; for GGGVMASDKPCTRVSLINKM it is 0.161 ± 0.7. As for PYFLGGRA, the amyloid nucleation score is -0.809 ± 2.1. For FSASFNGLAAGRLASR, the amyloid nucleation score was -0.105 ± 1.3. Next, MLVHYVAFVFNMSTRCNCSE: 6.253 ± 0.046; HMNSVVMPRWPTLNGELGSR: -0.179 ± 0.4. Next, LMAYNLGRPFAPFNCNVMGR: -0.268 ± 0.98. Take ESKEPFLCIQDITVSSFLPF: the amyloid nucleation score is -1.69 ± 2.4. Next, NACDCQPMFVMQWYRRVEPR: -0.167 ± 0.53. Next, KSHIIFSIWQRLFGGHRISK: 0.413 ± 0.58.

On to NRNERVTHSSQFSIGFEERM, for which the amyloid nucleation score came out at 1.14 ± 0.57. Consider TRSLPFSIS, for which the amyloid nucleation score worked out at 0.109 ± 1.4. Next, HSFIYYWC: 7.49 ± 0.051. The figure for IQALDLDTVFDCC is 6.45 ± 0.088; for RWVTLCRWVNVSSDGELGVR it is 0.993 ± 0.35.

In the case of NSRKSAGHPSLESGSLLCYA, the amyloid nucleation score was -0.041 ± 0.5.

The substance FYWMMANRNTQCVVCFAVLR gave an amyloid nucleation score of -0.754 ± 0.54. For HLSEFAVGVCEVY, the amyloid nucleation score came out at 1.27 ± 0.56.
